Conditions: Katsuwonus pelamis, pH 7.5, 25 °C, GdnHCl, CD, Tris 20 mM, NaCl 40 mM, reversible: yes

Cytochrome c K74M, P00025, sequence (P00025 whole entry K74M): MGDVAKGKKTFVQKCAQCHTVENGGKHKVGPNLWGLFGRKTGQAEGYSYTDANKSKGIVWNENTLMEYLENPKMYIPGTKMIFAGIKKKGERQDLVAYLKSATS
Cytochrome c wild type, P00025, sequence (P00025 whole entry): as the sequence (P00025 whole entry K74M) above, with M74K counted along it
Cytochrome c K74W, P00025, sequence (P00025 whole entry K74W): as the sequence (P00025 whole entry K74M) above, with M74W counted along it
Cytochrome c K74F, P00025, sequence (P00025 whole entry K74F): as the sequence (P00025 whole entry K74M) above, with M74F counted along it
Cytochrome c K74Y, P00025, sequence (P00025 whole entry K74Y): as the sequence (P00025 whole entry K74M) above, with M74Y counted along it

Substance: Cytochrome c wild type, P00025
- denaturant m value: 4.87 kcal/mol/M
- denaturant midpoint (higher = more stable): 1.16 M
- unfolding free energy: 5.66 kcal/mol

Substance: Cytochrome c K74M, P00025
- ddG of mutation (higher = less stable) (structure 1CYC): 1 kcal/mol
- denaturant m value (structure 1CYC): 4.43 kcal/mol/M
- denaturant midpoint (higher = more stable) (structure 1CYC): 1 M
- unfolding free energy (structure 1CYC): 4.66 kcal/mol

Substance: Cytochrome c K74Y, P00025
- ddG of mutation (higher = less stable) (structure 1CYC): 1.05 kcal/mol
- denaturant m value (structure 1CYC): 4.62 kcal/mol/M
- denaturant midpoint (higher = more stable) (structure 1CYC): 1 M
- unfolding free energy (structure 1CYC): 4.61 kcal/mol

Substance: Cytochrome c K74F, P00025
- ddG of mutation (higher = less stable) (structure 1CYC): 1.15 kcal/mol
- denaturant m value (structure 1CYC): 4.44 kcal/mol/M
- denaturant midpoint (higher = more stable) (structure 1CYC): 1 M
- unfolding free energy (structure 1CYC): 4.51 kcal/mol

Substance: Cytochrome c K74W, P00025
- ddG of mutation (higher = less stable) (structure 1CYC): 1.43 kcal/mol
- denaturant m value (structure 1CYC): 4.16 kcal/mol/M
- denaturant midpoint (higher = more stable) (structure 1CYC): 1 M
- unfolding free energy (structure 1CYC): 4.23 kcal/mol
